Publication PMC12408340 (Nature, 2025)

B1: Felis catus APN ectodomain fused to a human Fc fragment (FcAPN-Fc) (Fc fusion)
chain: DQSKPWNVYRLPKTLIPDSYNVTLRPYLTPNNKGLYVFTGTNIVRFTCKESTNIVIIHSKRLNYTSHQGHMVALSGVGGFHPQPVIVRTELVELTEYLVVHLQEPLVAGRQYEMNSEFQGELADDLAGFYRSEYMENGVKKVLATTHMQATEARKSFPCFDEPAMKATFNITIIHPNNLVALSNMLPRGPSVPFGEDPTWKVTEFETTPIMSTYLLAYIVSEFSYVETRAPSGVLIRIWARPSAINQGHGDYALKVTGPILDFFSQHYDTPYPLNKSDQIALPDFNAGAMENWGLVTYRESALLYDRQSSSSGNQERVVTVIAHELAHQWFGNLVTLEWWNDLWLNEGFASYVEYLGADFAEPTWNLKDLMVLNDVYRVMAVDALASSHPLSTPASEINTPAQISEVFDSISYSKGASVLRMLSNFLTEDLFKMGIASYLHTYKYGNTIYLNLWEHLQQVVDKQPTIKLPDTVSAIMDRWILQMGFPVITVDTQTGTISQQHFLLDPQSVVTRPSQFNYLWIVPISSVRSGSPQAHYWLPGVEKAQNDLFKTTANDWVLLNLNVTGYYLVNYDNENWKKIQTQLQTDLSVIPVINRAQVIHDAFNLASAQKVPVTLALNNTLFLIQETEYMPWQAALSSLSYFKLMFDRSEVYGPMKRYLKKQVTPLFNHFERVTKNWTDHPQTLMDQYSEINAVSTACSYGVPECEKLAATLFAQWKKNPQNNPIHPNLRSTVYCNAIAQGGEEEWNFVWEQFLKAELVNEADKLRGALACSNQVWILNRFLSYTLDPNLIRKQDVTSTLSSISSNVVGQTLVWDFVQSNWKKLFQDYGTGSFSFSNLIQAVTRRFSTEFELQQLEQFKKNNMDTGFGSATRALEQALEKTKANLKWVKENKDVVLRWFTENS
B2: Canis lupus familiaris APN ectodomain fused to a human Fc fragment (CfAPN-Fc) (Fc fusion)
chain: LAQSKPWNHYRLPKTLIPSSYNVTLRPYLTPNSNGLYTFKGSSTVRFTCKESTSMIIIHSKKLNYTNIQGQRVALRGVGGSQAPAIDRTELVEVTEYLVVHLREPLQVNSQYEMDSKFEGELADDLAGFYRSEYTENGVKKVLATTQMQAADARKSFPCFDEPAMKATFNITLIHPSNLVALSNMLPRGPSVPFTEEPNWNVTEFETTPIMSTYLLAYIVSEFKNVQENTPSNVLIRIWARPSAMDQGHGNYALRVTGPILDFFSRHYDTPYPLNKSDQIALPDFNAGAMENWGLVTYRESALLYDPQSSSIGNKERVVTVIAHELAHQWFGNLVTLEWWNDLWLNEGFASYVEYLGADYAEPTWNLKDLIVLNEVYRVMAVDALASSHPLSSPASEVNTPAQISEVFDSISYSKGASVLRMLSSFLTEDLFKKGVASYLHTFAYQNTIYLDLWNHLQWALGNQTAINLPYTVNAIMDRWILQMGFPVVTVDTTTGTLSQKHFLLDPQSNVTRPSKFNYLWIIPISSVKSGTQQAHYWMPDNAKVQNDLFKTTGDEWVLLNLNVTGYYLVNYDQNNWKKIHTQLQTDLSVIPVINRAQVIHDTFDLASAQIVPVTLALNSTLFLNQETEYMPWEAALSSLSYFKLMFDRSEVYGPMKNYLRKQVTPLFNHFEKITQNWTDHPQTLTEQYNEINAVSTACTYGVPKCKDLVSTLFAEWRKNPQNNPIYPNLRSTVYCNAIAQGGEEEWNFVWEQFRNTSLVNEADKLRSALACSTQVWILNRYLSYTLNPEFIRKQDVISTLSSIASNVIGQSLAWDFIQSNWKKLFEDYGTGSFSFSNLIQAVTRRFSTEFELQQLEQFKANNMDTGFGSGTRALEQALEKTKANIKWVKENKEAVLQWFRENSQ
B3: Felis catus APN ectodomain dimer without the Fc fusion (FcAPN) (domain or fragment)
chain: B1 chain

Experiments:
[1] = biological target: FCoV-23 S domain B (receptor-binding domain, RBD), residues 529-677 (FCoV-23 (feline coronavirus)); test: BLI; […]; global 1:1 fit; […]
[2] = biological target: T1, CCoV-HuPn-2018 S domain B (receptor-binding domain, RBD), residues 523-671 (CCoV-HuPn-2018 (canine coronavirus)); test: BLI
T1 chain: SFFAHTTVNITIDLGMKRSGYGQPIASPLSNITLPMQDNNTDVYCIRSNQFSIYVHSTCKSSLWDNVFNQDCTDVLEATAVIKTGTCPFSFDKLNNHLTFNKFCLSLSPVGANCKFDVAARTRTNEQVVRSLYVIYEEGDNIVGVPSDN

cryo-EM structure = biological target: the molecule itself; test: cryo-EM structure

Molecule | Kd [1] | Kd [2] | also measured
Canis lupus familiaris APN ectodomain fused to a human Fc fragment (CfAPN-Fc) (from UniProt P79143 71-975) (Fc fusion) | 1.3 nM |  | 
Felis catus APN ectodomain fused to a human Fc fragment (FcAPN-Fc) (from UniProt P79171 64-967) (Fc fusion) | 11 nM |  | 
B1 |  | 28 nM | 
B2 |  | 2.6 nM | 
B3 |  |  | stoichiometry N (cryo-EM structure): 2
